Measured values: patent US20090155249A1 (AC IMMUNE S A, published 2009)

Target: Amyloid Beta (antigen of the Amyloid Beta ELISA) (UniProt P05067 672-713, limits assumed)
Test: Amyloid Beta ELISA, purified antibodies, A405

Amyloid Beta (antigen of the Amyloid Beta ELISA), sequence (P05067 672-713 limits assumed): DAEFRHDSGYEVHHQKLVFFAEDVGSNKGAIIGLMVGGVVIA

- EC50 (read off the curve): ~3 ng/well
B1: chimeric antibody C2 ChVH AF/ChVK (antibody, V domains shown)
VH: EVQLVESGGGLVQPGGSLKLSCAASGFTFSSYGMSWVRQTPDKRLELVASINSNGGSTYYPDSVKGRFTISRDNAKNTLYLQMSSLKSEDTAMYYCASGDYWGQGSTLTVSS
VL: DVVMTQTPLSLPVSLGDQASISCRSSQSLVYSNGDTYLHWYLQKPGQSPKLLIYKVSNRFSGVPDRFSGSGSGTDFTLKISRVEAEDLGVYFCSQSTHVPWTFGGGTKLEIKR
notes: both forms are written under this id; also called C2 VH AF/C2 VK chimeric antibody; chimeric AF
